In this experiment the target is FKBP12-Gag^HIV fusion protein (FKBP12 domain added to the N-terminal of Gag of HIV) (human immunodeficiency virus (HIV)). As to the kind of experiment: cell-based or functional assay. Conditions: scale: times.

Regarding “luciferase protein fused with an FRB domain (FRB-Luc) (from UniProt P42345 2021-2113)”, the luciferase activity in HEK293T cells 16 hours after introduction of VLPs was 12.
